Assay results published in patent US20090232801A1.

How the values were obtained:
Aβ(1-42) fibrils (human) = experiment: fibril pull-down: antibody incubated 20 h at 37 °C with Aβ(1-42) fibrils, centrifuged; SDS-PAGE densitometry of the heavy chain in pellet and supernatant
[1] = target: Aβ(1-42) monomer, HFIP pretreated (human); experiment: dot blot, 10 pmol antigen on nitrocellulose, 0.2 µg/ml antibody, densitometry
Aβ(1-40) monomer (human) = experiment: as above
[2] = target: Aβ(1-42) globulomer (human); experiment: as above
[3] = target: Aβ(1-42) globulomer (human); experiment: dot blot densitometry; reference: Aβ(1-42) monomer
[4] = target: Aβ(1-42) globulomer (human); experiment: dot blot densitometry; reference: Aβ(1-40) monomer

Sequence of Aβ(1-42) globulomer (human) (peptide, as listed by the source): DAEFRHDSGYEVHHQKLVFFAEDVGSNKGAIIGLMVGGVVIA
Sequence of Aβ(1-40) monomer (human) (peptide, as listed by the source): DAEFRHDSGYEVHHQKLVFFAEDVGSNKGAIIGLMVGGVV

Substance	Fibril bound Ab fraction (Aβ(1-42) fibrils (human)) [%]	Reflective Density (RD) [10 pmol] [1] [RD]	Reflective Density (RD) [10 pmol] (Aβ(1-40) monomer (human)) [RD]	Reflective Density (RD) [10 pmol] [2] [RD]	Ratio RD Aβ(1-42) globulomer/RD Aβ(1-42) monomer [3]	Ratio RD Aβ(1-42) globulomer/RD Aβ(1-40) monomer [4]
unspecific antibody IgG2a	9	–	–	–	–	–
mouse monoclonal antibody 4G8	–	3.5	0.15	1.5	0.42	10
mMAb 6E10 (Signet Inc. Cat.#9320) (antibody)	91	–	–	–	–	–
